Laboratory results: patent US20090110680A1, “Combination of an anti ED-B fibronectin domain antibody and gemcitabine” (priority 2006, published 2009)

Tests used:
[1] = molecular target: T1, ED-B domain of fibronectin (Homo sapiens, UniProt P02751); settings: cited from earlier work
T1 construct: The ED-B, a small domain of 91 amino acids

[2] = tested on: Capan-1, human pancreas adenocarcinoma xenografts; assay: Radiotherapy / combination therapy study in mice bearing human pancreatic tumour xenografts; assay type: in vivo; settings: for survival versus untreated control animals: control (36 days)
Description: ED-B-fibronectin domain expression in mouse pancreatic tumour models as well in human pancreatic cancer tissue, pancreatitis and normal pancreas was investigated by immunohistochemical analysis. SPECT (=single photon emission computed tomography) imaging was performed in an orthotopic pancreas cancer mouse model (DAN-G human pancreas carcinoma, DMSZ No. ACC249) with the ^99mTc labelled ED-B-fibronectin domain targeting scFv antibody fragment AP39, described in WO 03/055917. In addition MRI imaging was performed. In radiotherapy studies, mice bearing human pancreatic tumour xenografts (Capan-1, human pancreas adenocarcinoma, ATTC-No. HTB-79) were treated with a single dose of either 37 MBq or 74 MBq of ^131I-labelled ED-B-fibronectin domain targeting L19-SIP (=fusion protein). For combination therapy Capan-1 tumour bearing mice received two cycles of gemcitabine (1 g/m^2/week for three weeks with a one-week break), followed by a single dose of 37 MBq ^131I-L19-SIP 24 h after the first injection of gemcitabine. In a first experiment Capan-1 tumour bearing mice received either a single dose of 37 MBq of ^131I labelled ED-B-fibronectin domain targeting L19-SIP, or two cycles of gemcitabine (1 g/m^2/week for three weeks with a one-week break) as stand alone therapies. For combination therapy mice received two cycles of gemcitabine together with a single dose of 37 MBq ^131I-L19-SIP 24 h after the first injection of gemcitabine. In a second experiment Capan-1 tumour bearing mice were treated with a single dose of either 37 MBq or 74 MBq of ^131I labelled ED-B-fibronectin domain targeting L19-SIP (=fusion protein). For combination therapy Capan-1 tumour bearing mice received two cycles of gemcitabine (1 g/m^2/week for three weeks with a one-week break), together with a single dose of 37 MBq 1311-L19-SIP 24 h after the first injection of gemcitabine.

T1 sequence (P02751 1271-1359 limits assumed): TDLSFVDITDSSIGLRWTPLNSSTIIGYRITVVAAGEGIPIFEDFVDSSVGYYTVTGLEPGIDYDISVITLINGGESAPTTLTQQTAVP

scFv(L19): human single chain Fv antibody fragment specific for the ED-B domain of fibronectin
binding affinity for ED-B [1]: picomolar

Nc1ccn([C@@H]2O[C@H](CO)[C@@H](O)C2(F)F)c(=O)n1 [gemcitabine, 2′-deoxy-2′,2′-difluorocytidine]
survival versus untreated control animals ([2]; gemcitabine alone, two cycles (1 g/m^2/week for three weeks, one-week break), Capan-1 tumour bearing mice): did not differ from untreated control animals

B1: ^131I-L19-SIP (conjugate, chains of the INN, looked up)
VH: EVQLLESGGGLVQPGGSLRLSCAASGFTFSSFSMSWVRQAPGKGLEWVSSISGSSGTTYYADSVKGRFTISRDNSKNTLYLQMNSLRAEDTAVYYCAKPFPYFDYWGQGTLVTVSS
VL: EIVLTQSPGTLSLSPGERATLSCRASQSVSSSFLAWYQQKPGQAPRLLIYYASSRATGIPDRFSGSGSGTDFTLTISRLEPEDFAVYYCQQTGRIPPTFGQGTKVEIK
modifications: small immunoprotein iodine-131 label
survival versus untreated control animals ([2]; 37 MBq ^131I-L19-SIP alone, Capan-1 tumour bearing mice): did not differ from untreated control animals
tumour growth inhibition compared to untreated control tumours ([2]; 37 MBq ^131I-L19-SIP, single dose): did not result in tumour growth inhibition
median survival ([2]; single dose of 74 MBq ^131I-L19-SIP alone, Capan-1 tumour bearing mice, untreated control 32 days): 44 days
